B1: Nuclear receptor subfamily 2 group C member 1 (Mus musculus), Q505F1 (parent)
chain: MATIEEIAHQIIDQQMGEIVTEQQTGQKIQIVTALDHSTQGKQFILANHEGSTPGKVFLTTPDAAGVNQLFFTSPDLSAPHLQLLTEKSPDQGPNKVFDLCVVCGDKASGRHYGAITCEGCKGFFKRSIRKNLVYSCRGSKDCVINKHHRNRCQYCRLQRCIAFGMKQDSVQCERKPIEVSREKSSNCAASTEKIYIRKDLRSPLAATPTFVTDSETARSAGLLDSGMFVNIHPSGIKTEPAMLMAPDKAESCQGDLSTLASVVTSLANLGKAKDLSHCGGDMPVVQSLRNGDTSFGAFHHDIQTNGDVSRAFDTLAKALTPGESSACQSPEEGMEGSPHLIAGEPSFVEKEGPLLSESHVAFRLTMPSPMPEYLNVHYIGESASRLLFLSMHWALSIPSFQALGQENSISLVKAYWNELFTLGLAQCWQVMNVATILATFVNCLHSSLQQDKMSPERRKSLMEHIFKLQEFCNSMVKLCIDGHEYAYLKAIVLFSPDHPGLENMELIERFQEKAYVEFQDYITRTYPDDTYRLSRLLLRLPALRLMNATITEELFFKGLIGNVRIDSVIPHILKMEPADYNSQIIGHSL

Variants of: B1
Conditions: with pias1_mouse Pias1, O88907
Sequence of pias1_mouse Pias1, O88907 (O88907 whole entry): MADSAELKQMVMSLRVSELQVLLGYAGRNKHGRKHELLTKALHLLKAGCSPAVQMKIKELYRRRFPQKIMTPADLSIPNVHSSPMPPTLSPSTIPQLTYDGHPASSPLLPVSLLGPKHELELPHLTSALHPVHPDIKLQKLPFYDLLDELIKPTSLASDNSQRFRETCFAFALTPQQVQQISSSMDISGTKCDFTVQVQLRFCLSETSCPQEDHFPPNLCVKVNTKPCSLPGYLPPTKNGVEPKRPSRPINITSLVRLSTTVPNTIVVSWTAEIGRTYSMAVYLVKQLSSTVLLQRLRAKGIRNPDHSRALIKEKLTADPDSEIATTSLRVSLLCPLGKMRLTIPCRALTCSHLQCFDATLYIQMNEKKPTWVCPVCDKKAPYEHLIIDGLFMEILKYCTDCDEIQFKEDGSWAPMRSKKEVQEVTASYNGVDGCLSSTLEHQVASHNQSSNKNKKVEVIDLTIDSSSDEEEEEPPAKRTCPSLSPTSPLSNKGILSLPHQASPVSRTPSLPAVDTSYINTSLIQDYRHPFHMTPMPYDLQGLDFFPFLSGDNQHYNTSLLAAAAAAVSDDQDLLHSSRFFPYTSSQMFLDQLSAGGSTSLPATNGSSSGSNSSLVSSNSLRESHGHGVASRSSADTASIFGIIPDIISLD

Row | effect of a mutation on the interaction | Variant
1 | decreasing interaction | MATIEEIAHQIIDQQMGEIVTEQQTGQKIQIVTALDHSTQGKQFILANHEGSTPGKVFLTTPDAAGVNQLFFTSPDLSAPHLQLLTEKSPDQGPNKVFDLCVVCGDKASGRHYGAITCEGCKGFFKRSIRKNLVYSCRGSKDCVINKHHRNRCQYCRLQRCIAFGMKQDSVQCERKPIEVSREKSSNCAASTEKIYIRKDLRSPLAATPTFVTDSETARSAGLLDSGMFVNIHPSGIATEPAMLMAPDKAESCQGDLSTLASVVTSLANLGKAKDLSHCGGDMPVVQSLRNGDTSFGAFHHDIQTNGDVSRAFDTLAKALTPGESSACQSPEEGMEGSPHLIAGEPSFVEKEGPLLSESHVAFRLTMPSPMPEYLNVHYIGESASRLLFLSMHWALSIPSFQALGQENSISLVKAYWNELFTLGLAQCWQVMNVATILATFVNCLHSSLQQDKMSPERRKSLMEHIFKLQEFCNSMVKLCIDGHEYAYLKAIVLFSPDHPGLENMELIERFQEKAYVEFQDYITRTYPDDTYRLSRLLLRLPALRLMNATITEELFFKGLIGNVRIDSVIPHILKMEPADYNSQIIGHSL [K238A]

— IntAct's records for PubMed 17187077
